The text below walks through data of US6350431B1, “Compounds” (Nycomed Imaging AS, priority 1997, dated 2002).

The subject of data set [1] is HT-29 tumors. As to the kind of experiment: Biodistribution of chromophore-polymer in HT-29 tumored mice after intravenous injection. The format is in vivo, female immunodeficient mice. Conditions: for injected dose localized in the tumor: after one hour, solution in phosphate buffered saline injected. The protocol:
General Method Used For the Measurement of Chromophore-Polymer Distribution in the Mouse
Tac:N:NIH(S)-nufDF, female immunodef icient mice
Tac:Cr:NCr-nufBr, female immunodeficient mice
HT29-Human Colon Carcinoma
The mice were randomised into groups based on tumor volumes. On the day of the study, the test articles (Polymers 1,2) were injected into the mice via the tail vein. Chloroaluminium phthalocyanine tetrasulfonate was used as a reference compound (control) in one group of mice in these studies. […] The blood was collected by heart puncture and put into either EDTA or Lithium Heparin tubes. The samples were then spun down and the plasma was collected and weighed. The spleen, liver, kidneys, muscle and tumor were collected, rinsed with PBS and weighed in pre-tared tubes. The samples were then either refrigerated for immediate analysis or frozen at −20 degrees Celsius and subsequently analysed.
B) Plasma Collection and Preparation
Plasma was collected in tared Eppendorf tubes and the tubes were weighed. To each tube was added 1 mL of ethanol. The contents of the tubes were mixed with a vortex mixer and then micro-centrifuged at 14000 rpm for 2 min. The supernatant liquid was transferred by pipette into a clean and labelled Eppendorf tube. This procedure was repeated for all plasma samples. Each sample was transferred to a clean cuvette and the amount of chromophore was determined by absorbance at a predetermined wavelength. Concentration of the chromophore in the sample was determined by comparison with a standard curve generated from known concentrations of chromophore.
C) Organ Collection and Preparation
Organs were removed from the mice, placed in tared sample tubes, and the new weights were recorded. To each tube was added 1 mL of deionised water, and the organs were homogenised. The homogenate was transferred into a tared Eppendorf tube and the weight was recorded. To this homogenate was added 500 μl of ethanol, the mixture was mixed by vortex mixer, and the contents of the tube was centrifuged in a micro-centrifuge at 8000 rpm for 2 min. The supernatant was transferred by pipette into a clean Eppendorf tube. To the residual pellet was added 500 μl of ethanol, the mixture was mixed by shaking vigorously in a vortex mixer, and the sample was centrifuged again. The supernatants were combined, transferred to a clean cuvette, and the concentration of the chromophore was determined spectroscopically at pre-determined absorbance by comparison with the standard curve. The mean concentration of the chromophore in each organ was determined by regressional analysis.

Data set [2] deals with HT-29 tumors. The experiment in a line: Photographic / visual light imaging of HT-29 tumors from mice 24 hours post injection of contrast agent. The format is in vivo, female immunodeficient mice. The protocol: FIG. 4 is a photograph taken under room fluorescent light of female immunodeficient mice with exposed human HT-29 tumors 24 hours post intravenous (tail vein) injection with 0.1 mg/(g body weight) in PBS of the blue contrast agent NC100526. The labeled sheet to the right of the mice was spotted with PBS solutions of several contrast agents of this invention and then dried in order to show how they appear under various illumination and imaging conditions. The tumors (indicated by arrows) have been sliced to expose their interiors as well as their exteriors.
The light source was ambient fluorescent room light.
The photograph was taken with black-and-white infrared film using irradiation at 780 nm from an array of light-emitting diodes. These conditions gave maximum absorption and contrast enhancement of NC100448 as evidenced by the darkened spot of contrast agent on the paper chart.
FIGS. 8a and 8b are photographs of two views taken from different angles of HT-29 tumors sliced open and removed from mice at 24 hours post injection with 10 mg/(g body weight) of NC100505 in PBS and irradiated with 366 nm wavelength light. […] In the black and white photograph they appear as bright spots. Other organs and the skin appear normal.
FIG. 10a is a photograph of a collection of excised tumors viewed under ambient fluorescent room light. The top row contains tumors resected from mice at 24 hours post i.v. injection with NC100505 in PBS. The second, third, and fourth rows are tumors resected from mice 24 hours post i.v. injection with PBS solutions of NC100526, NC100448, and NC100524, respectively. […]
FIG. 11 is a photograph of a set of excised tumors irradiated with 780 nm infrared light that were removed from mice 24 hours post injection with PBS solutions of NC100448 (top row) and indocyanine green (bottom row). The image was recorded with an infrared sensitive CCD camera (Bischke, Type N-CCD-4024, fitted with a Computar TV Zoom lens 1:1.2/12.5-75) on VHS tape (Maxell HGX Plus) at 30 frames/sec using a Panasonic AG-1310P HQ Video Cassette Recorder with super 4-Head VHS SQPB). […]

A short description of the next data set: Solubility of Sudan III. It counts as physicochemical.
[3] abbreviates: 6 hr after injection, Table 2, female immunodeficient mice with HT-29 tumors.
[4] abbreviates: 48 hr after injection, Table 2, mice with HT-29 tumors.
The mark [5] stands for this setting: within 24 hours, Table 2 experiment.
[6] abbreviates: 3 hr, i.v. 0.05 mg/(g body weight) in PBS, HT 29 tumored mice.
Setting [7] is: 6 hr, i.v. 0.05 mg/(g body weight) in PBS, HT 29 tumored mice.
Setting [8] is: 24 hr, i.v. 0.05 mg/(g body weight) in PBS, HT 29 tumored mice.
Where [9] appears, read: at 24 hours, i.v. 0.05 mg/(g body weight) in PBS.
Where [10] appears, read: one hour post intravenous injection of phosphate buffered saline solution, mice with HT-29 tumors.
[11] abbreviates: three hours post intravenous injection of phosphate buffered saline solution, mice with HT-29 tumors.
The mark [12] stands for this setting: three hours versus one hour post intravenous injection.
Where [13] appears, read: female immunodeficient mice with HT-29 tumors.

As for “[PcAlCl(SO3H)3SO2NH]2[PEG 10,000] [NC100481]”, in the data set on HT-29 tumors [1] (setting [3]), the Muscle is given as 10.3 ± 17.9 percent injected dose of the contrast agent per gram of tissue, the Plasma is on record as 7.4 ± 0.3 percent injected dose of the contrast agent per gram of tissue and the Tumor was 21.0 ± 7.1 percent injected dose of the contrast agent per gram of tissue. The Tumor with HT-29 tumors [1] (24 hr after injection, Table 2, mice with HT-29 tumors) was 16.6 ± 3.9 percent injected dose of the contrast agent per gram of tissue. In addition, in the data set on HT-29 tumors [1] (setting [4]), the Muscle is given as 59.5 ± 42.9 percent injected dose of the contrast agent per gram of tissue and the Tumor is given as 9.1 ± 4.5 percent injected dose of the contrast agent per gram of tissue. Moreover, the “concentration of contrast agent in the tumor (in words)” value with HT-29 tumors [1] (after 48 hours, Table 2 experiment) is given as “remained at a high concentration”. In the data set on HT-29 tumors [1] (setting [5]), the “clearance of contrast agent from the blood (in words)” value is reported as “cleared” and the “clearance of contrast agent from the muscle (in words)” value is “cleared”.
Take “Bisthioether 2:1 Dye:Polymer Reaction Product Between 2-[2-[2-chloro-3-[[1,3-dihydro-1,1,-dimethyl-3-(3-sulfopropyl)-2H-benz[e]indol-2-ylidene]ethylidene]-5-(ethoxycarbonyl)-1-cyclohexen-1-yl]ethenyl]-1,1-dimethyl-3-(3-sulfopropyl)-1H-benz[e]indolium, Inner Salt, Sodium Salt and Disodium PEG3,400-α,ω-dithiolate [NC100448]”: the “appearance of tumors, black-and-white infrared film, irradiation at 780 nm” value with HT-29 tumors [2] (24 hours after injection of 0.05 mg/(g body weight) in PBS, versus control tumors) is recorded as “uniformly darker than control tumors”. The “appearance of excised tumors irradiated with 780 nm infrared light, infrared sensitive CCD camera” value in the data set on HT-29 tumors [2] (24 hours post injection in PBS, compared to tumors from mice injected with ICG) is listed as “significantly darker”. Also, the “contrast agent / darkening along the tumor edges” value in the data set with HT-29 tumors [2] (24 hours post injection, sliced tumors) is “do not show darkening around the edges”. Besides, in the data set with HT-29 tumors [1] (setting [6]), the Plasma is on record as 14.33 ± 1.33 percent injected dose of the contrast agent per gram of tissue and the Tumor is given as 5.57 ± 0.73 percent injected dose of the contrast agent per gram of tissue. For the same molecule, in the data set on HT-29 tumors [1] (setting [7]), the Plasma is reported as 8.44 ± 1.33 percent injected dose of the contrast agent per gram of tissue and the Tumor is reported as 8.6 ± 1.53 percent injected dose of the contrast agent per gram of tissue. Also, in the data set on HT-29 tumors [1] (setting [8]), the Plasma was 0.46 ± 0.40 percent injected dose of the contrast agent per gram of tissue and the Tumor is on record as 7.53 ± 0.74 percent injected dose of the contrast agent per gram of tissue. In addition, in the data set on HT-29 tumors [1] (setting [9]), the “clearance of contrast agent from the blood (in words)” value is “largely cleared”, the “concentration of contrast agent in the tumors (in words)” value is “remained relatively high” and the “contrast agent in the muscle (in words)” value is given as “not increased”. Besides, the “detection in the tumor” value with HT-29 tumors [1] (setting [10]) is “detected in the tumor”. Besides, the “detection in the tumor” value with HT-29 tumors [1] (setting [11]) is “detected in the tumor”. Moreover, in the data set with HT-29 tumors [1] (setting [12]), the “concentration of the contrast agent in the blood, FIG. 3B relative to FIG. 3A” value was “decreased” and the “concentration of the contrast agent in the tumor, FIG. 3B relative to FIG. 3A” value is reported as “increased”.
For “Aluminum Chlorophthalocyaninetetrasulfonyl Chloride Polymer With PEG3,400-α,ω-diamine [Polymer 1]”, the “injected dose localized in the tumor” value with HT-29 tumors [1] (setting [13]) was found to be 4%. The “detection in the tumor” value in the data set on HT-29 tumors [1] (setting [10]) is reported as “detected in the tumor”.
Take `Oc1ccc2ccccc2c1N=Nc1ccc(N=Nc2ccccc2)cc1` [Sudan III]: in “Solubility of Sudan III”, the “solubility in sesame oil” value is listed as “soluble in sesame oil” and the solubility in water entry was “very water insoluble”.
On to ClAlPc(SO2NHPEG5000)4 [Example 20], for which the “injected dose localized in the tumor” value in the data set with HT-29 tumors [1] (setting [13]) amounted to 2.5%.
Consider `CC1(C)C(/C=C/C=C/C=C/C=C2\N(CCCCS(=O)(=O)O)c3ccc4ccccc4c3C2(C)C)=[N+](CCCCS(=O)(=O)[O-])c2ccc3ccccc3c21` [indocyanine green, reference compound], for which the “detection in the tumor” value in the data set on HT-29 tumors [1] (setting [10]) and in the data set on HT-29 tumors [1] (setting [11]) was “negligibly detected” in each case.
In the case of “Aluminum Chlorophthalocyanine Tetrasulfonyl Chloride Polymer With PEG5,000-α,ω-diamine [Polymer 2]”, the “injected dose localized in the tumor” value in the data set on HT-29 tumors [1] (setting [13]) was determined as 2.5%. In the data set with HT-29 tumors [1] (setting [10]), the “detection in the tumor” value is “detected in the tumor”.
Regarding “[NH(PEG3400)NHSO2PcAlCl (SO3H)2SO2]n [Example 18]”, the “injected dose localized in the tumor” value in the data set on HT-29 tumors [1] (setting [13]) turned out to be 4%.
As to “chloroaluminum phthalocyanine tetrasulfonate [reference compound]”, the “detection in the tumor” value in the data set with HT-29 tumors [1] (setting [10]) was “negligibly detected”.
